Test results taken from the domain aggregation screens of Martell et al. (2025).

assay: soluble fraction after stress (log2 fold change); higher = more stays soluble; pooled small domains, quantitative proteomics; details: stress: pH 4
Outline: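 Pooled custom libraries of small protein domains were subjected to pH 4 and measured by high-throughput quantitative proteomics. The log2 fold change in soluble amount per domain is reported, higher values meaning more remained soluble. This is used as a measure of aggregation propensity.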

“HMAADRRKAERPLIDGQAVMDRFEVGPGPMVGKALKFLLALKRAEPDLDLAGTEERLDAWWNEQL” and “HMKQISNTDELESMAKNIIQENPDQVSKFKNGNEKLFGWFVGQMMKSTGGTANPKVVNEILKNLLN” are within 0.2 log units of each other in “soluble fraction (log2)” value: 0.289 for the first, 0.162 for the second.

“HMEEIDLTPAEEILNKLPDNSRGYLIPTLNKIQNAYRFLPDPAMELLMEFFNVSRAEIFGVISFYPQLMI” and “HMAEWLLVQLTNGNWFYGEVIEKTDATIVLNTDILGKVSIQKLDIRRSISGPLTAAKRQEIEDSERAKD” are within 0.2 log units of each other in “soluble fraction (log2)” value: -0.533 for the first, -0.341 for the second.

Going from “HMNGKTIEVPDITEKSIAEAQLILNQKKLRYNVVDSTRFDPAYLPFSVLTQEPEAGDEVKKNRTIYITLNP” to “HMYMKGKVKWFDSKKGYGFITSENGKEIFVHFSGIAAKGFKSLNEGQTVEFEVANGAKGEQAVNVTV”, the “soluble fraction (log2)” value rises from -0.0716 to 0.178.

Compared with “HMRTLSAGVAGRLRADILNGLLEPGRRLGMAELTERYGAGMSPVREALSRLVGEGLVQSEGQRGFRVA”, “HMPEVYPFEVAEDDAGKRLDVFLSEEIEEFTRSFIQKLIAGGLASVNRAPARASYRVKPRDLVELQVPE” is lower in “soluble fraction (log2)” value: 0.199 for the first, -0.158 for the second.

Compared with “HMNIDQAFISDLERMIMPDISKYELMDIISIMENSGFTIKVEGTGNEVRQVIKPGSKLKKGQKIKIKL”, “HMSNIQLAANLQRLRKDHHFTQTQFSKKLNISRQAYSNYETGKRIPDLDIIIRIANIYHISLENLL” is higher in “soluble fraction (log2)” value: -1.79 for the first, -0.203 for the second.

Going from “HMVYFAKNIRHLRRLRGMSQELLAAELDITRARLGAYEESRSEPPLHLLIKISEFFKLPVDIIVKNDLTKS” to “HMDLDSGVAVLRTLMSQHNLQTDDFQNEIGGKSMVSMILNGTRKLSKNHIQALSGRFNLSPALFF”, the “soluble fraction (log2)” value rises from -0.961 to -0.494.

Compared with “HMLRGKNALMSQLDQIQGIGPKRKRALFNHFLTLDAIKQADVETLRQAPGMNLPAAEQVYRHFHM”, “HMNEMSDTITRLLDAAETGIRLRGYHAVSFRDLAEELGIKSSSVHYYFRQKEDLGLAVVERY” is lower in “soluble fraction (log2)” value: 0.144 for the first, -0.185 for the second.

Compared with “HMALLKRQDEILMYLYTQNKWITGNELAQLFHVSLRTIRNDISFINTEKSNSVLSNRNKGYHIAKDFVYNE”, “HMAIGDYYINASALNVRSGEGTNYRIIGALPQGQKVQVISENSGWSKINYNGQTGYIGTRYLSKTPV” is higher in “soluble fraction (log2)” value: -0.0758 for the first, 0.22 for the second.

First: HMQTTDTGAIETIVDELMAANPDKVEAYRGGKTGLQGFFMGQVMKQLGGQGNPKVISAIVTEKLE
Second: HMGSNENTIREYFDSLIASASKREIMDANPTMSQRTVERILQKLQAEGYVEKIGAARSTRYRRA
The “soluble fraction (log2)” value of the first is higher: 0.257 for the first, -0.0919 for the second.

Going from “HMVAMGQRVVPLTHLSIDDVRRLLESTYGKDSGIEVTKPGTAAKGVIVTAPRTELDGIVALVKQA” to “HMLAVPADFAEKLQSLRSQLASDDLDASDAFGRLQPFIKALYPAQLEALRKAVDDFDFVEATRLIDQLPQ”, the “soluble fraction (log2)” value falls from 0.0822 to -0.954.

“HMTEPIESVTTIAGRRIPYRLVRSLRARRMRMTIKESQVTVTLPRGVPLGEAERFLQQNAAWLFKQLDKP” and “HMSSTPEPPQAVLDLVNLREQARAGKDWTQSDAFRQQIAALGWTVKDTKDGPVVSLSPTTTE” are within 0.2 log units of each other in “soluble fraction (log2)” value: 0.162 for the first, 0.105 for the second.

First: HMLKPQQTQRIYAMAARLGVLESGNKNDMLHTIVYRLTQKESIRSLNENEYKTVVSELAERLKL
Second: HMELLSVPSRLGTFFLGGEAGHIIRLYLPGDPTPRIAEHETPVLSEARRQLLEYLAGRRTAFSFPL
The “soluble fraction (log2)” value of the first is lower: -0.917 for the first, -0.223 for the second.

“HMTTQVNTVKIQLANGYEMTVLTSKTNVKEILEDNNIILENNEKVTPNIDEEISSNKTIKITDKSN” and “HMKKVIEFKDVSFAFEKKPILQDFNLLVQNKDRIGIVGDNGVGKSTLLNLIAERLQPQSGQVII” are within 0.2 log units of each other in “soluble fraction (log2)” value: -0.0659 for the first, 0.0777 for the second.

Going from “HMTGYVMIRVDGLSLEKFLNMAAEAGVRVSDVRRASYTVLYAVVSPRDLKKLQSVAPEKYTVTVR” to “HMSFNSQENKSVLWQFLLENNFFIGLSDKKFNKVKDIFEKNIQSISIVNDSISNKNKILIQKMMEELELL”, the “soluble fraction (log2)” value falls from -0.23 to -1.46.

First: HMRDFTQPQTASIGPRMREALARGTMTVEELREQFRTQEFPHESVRTAFLEELERVAAELGLA
Second: HMKKYEIIFNDLKQSIVNGKYSNEERLPPEETLAKKYQTSRVPVQQALNALVGIGMVKRIAGSGTYVTY
The “soluble fraction (log2)” value of the first is lower: -1.62 for the first, -0.212 for the second.

Going from “HMEPDEESVRLKEEILSRIDYWHTTMPYMGTRKLAAKLRTEGYAVGRKLVRTYMREMGIHAVYP” to “HMGSLVKLQSAAELHQAGRSAEAVPILLEVLATNPRLVDGWEILANALEKLGRLDEALAALKKTVALSPPG”, the “soluble fraction (log2)” value falls from -0.293 to -1.23.

Going from “HMTRYQHLAMLLEKRIAQGLYRNGERLPSVRSLSAEHGVSISTVQQAYYLLEQKQLIIPQSRSGYYVAPH” to “HMYEENFSKIKNDISTIFKRHKISFTNNFISHLSSVFNTDSLTNKMELEKLDSFLINNKKVTENELLKFII”, the “soluble fraction (log2)” value rises from -0.378 to 0.0436.

Compared with “HMNLDPIKRKSEILSLFESHKNVKFNEIFFEKVNKEFTVLTFLIILELVKDNIIDFSQTQEGLIEFFTR”, “HMGIEQVELASRVRDAVDSLPHHLREIILLSYFQKMSYNQIAETLQVPLGTVKSRLHAAVASFAQAWTQSS” is lower in “soluble fraction (log2)” value: 0.204 for the first, -0.658 for the second.

Compared with “HMTAPQAQDYARVPDVLGLDMRESAQALRLDGFEMNAQGDGLAARQSPIGGSYAPEGTQVLVTFEM”, “HMIDEKVQAADKSIEIGNLSPLKGLVTDDEMHELEKLFEKVMALKDFEVNDVGAGRKYIEAYVSFFKFAEG” is lower in “soluble fraction (log2)” value: -0.0592 for the first, -0.847 for the second.
